Consider 2 molecules from patent US20090155285A1 (Eli Lilly, published 2009).

For test [1], the target named is T1, mature human TGF-β1 (human, UniProt P01137 279-390).
T1 construct: Bought protein (R&D Systems, Cat # 240-B/CF); also called TGF Beta 1; TGF-b1
Put plainly: KinExA 3000, equilibrium in solution. As to the method: (§1) A KinExA 3000 instrument (Sapidyne Inst. Inc.) measures binding kinetics. Briefly, antigen is covalently-coupled to azlactone beads and the binding of an invention free Fab to the beads is detected on the instrument. […] After incubation, free Fab in each equilibrated sample is determined on KinExA 3000 per manufacturer instructions. Kd values are determined using KinExA 3000 software. To measure kₒₙ, individual Fabs at 2 nM are mixed with 0-240 nM of antigen using the injection method according to manufacturer's instructions, and the unbound Fab is detected. The resulting data is used to calculate the kₒₙ with KinExA 3000 software. The koff is calculated using the formula K_{d=k}off/kₒₙ. Affinity data obtained under KinExA© conditions for Fab embodiments binding TGF Beta 1 are shown below in Table 1.
On the technique in general: Kinetic exclusion samples the free partner from a solution-phase mixture.

The target of test [2] is T1, mature human TGF-β1. The test is described as follows: KinExA 3000, calculated from Kd and kon. How it is done: as §1
For test [3], the target named is T1, mature human TGF-β1. The test is described as follows: KinExA 3000, solution phase, antigen-coupled beads. As to the method: as §1

T1 sequence (P01137 279-390 limits assumed): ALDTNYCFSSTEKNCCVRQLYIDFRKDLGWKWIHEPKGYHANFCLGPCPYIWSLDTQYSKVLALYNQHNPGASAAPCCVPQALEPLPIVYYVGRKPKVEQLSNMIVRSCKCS

B1: Fab 12.7 (Fab, V domains shown)
VH: QVQLVQSGAEVKKPGASVKVSCKASGYTFTSEWMNWVRQAPGQGLEWMGQIFPALGSTNYNEMYEGRVTMTTDTSTSTAYMELRSLRSDDTAVYYCARGIGNYALDAMDYWGQGTLVTVSS
VL: DIQMTQSPSSLSASVGDRVTITCRASESVDFYGNSFMHWYQQKPGKAPKLLIYLASNLESGVPSRFSGSGSGTDFTLTISSLQPEDFATYYCQQNIEDPLTFGGGTKVEIKR
notes: The mAb was made by linking the Fab to an IgG4 Fc region, so the mAb's chains are named; The heavy chain entry also holds the Fc, which is not in the Fab
Consider B1, for which the Kd (in general, the concentration at which binding is half-saturated) with mature human TGF-β1 [1] was 0.09 pM. Besides, in the test with mature human TGF-β1 [2], the koff (commonly the first-order rate constant of dissociation) was 3.4e-07 s⁻¹. For the same molecule, the kon – broadly, the second-order rate constant of association – with mature human TGF-β1 [3] turned out to be 3.7e+06 M⁻¹ s⁻¹.

B2: Fab 12.8 (Fab, V domains shown)
VH: QVQLVQSGAEVKKPGASVKVSCKASGYTFTSYWMNWVRQAPGQGLEWMGQIFPALGSTNYNEMFEGRVTMTTDTSTSTAYMELRSLRSDDTAVYYCARGIGNYALDAMDYWGQGTLVTVSS
VL: DIQMTQSPSSLSASVGDRVTITCRASESVDWYGNSFMHWYQQKPGKAPKLLIYYASNLESGVPSRFSGSGSGTDFTLTISSLQPEDFATYYCQQNAEDPLTFGGGTKVEIKR
notes: as for B1
In the test with mature human TGF-β1 [1], B2 yielded a Kd of 0.22 pM. For the same molecule, the off-rate (koff) with mature human TGF-β1 [2] is 5.5e-06 s⁻¹. This molecule also returned an on-rate (kon) with mature human TGF-β1 [3] of 2.6e+07 M⁻¹ s⁻¹.
